% dig. CP (digested protein, peptides of 1500 Dalton or below, gel filtration HPLC) in the in vitro pancreatic insufficiency digestion model (% dig. CP of total protein) data for 1 substance are collected here from patent publication US20120207741A1.

The target in the test is protein of the maize/soybean meal (SBM) substrate (6:4).

Substance “protease derived from Nocardiopsis sp. NRRL 18262 (SEQ ID NO: 1) (enzyme)” yielded a % dig. CP (digested protein, peptides of 1500 Dalton or below, gel filtration HPLC) in the in vitro pancreatic insufficiency digestion model (% dig. CP of total protein) of 49.9.
